According to US20190161551A1 (Regeneron, published 2019):
Blank lines part the entries; values can stand above or below the binder they belong to.

Key:
[1] = target: T1, mouse TrkB extracellular domain expressed with a C-terminal myc-myc-hexahistidine tag (mouse, UniProt P15209 32-429); assay: SPR, mAb captured (anti-mFc), 25C
T1 construct: also called mTrkB.mmH; mTRKB.mmH
Experimental: (§1) Equilibrium dissociation constants (KD values) for TrkB binding to purified anti-TrkB monoclonal antibodies were determined using a real-time surface plasmon resonance biosensor using a Biacore 4000 instrument. All binding studies were performed in 10 mM Hepes pH 7.4, 150 mM NaCl, 3 mM EDTA, and 0.05% v/v Surfactant Tween-20 (HBS-ET running buffer) at 25° C. and 37° C. […] Binding studies were performed on following TrkB reagents; human TrkB extracellular domain expressed with a C-terminal myc-myc-hexahistidine tag (hTRKB.mmH; SEQ ID NO: 76; Accession number NP_001018074.1), mouse TrkB extracellular domain expressed with a C-terminal myc-myc-hexahistidine tag (mTRKB.mmH; SEQ ID NO: 79; Accession number NP_001020245), rat TrkB extracellular domain expressed with a C-terminal myc-myc-hexahistidine tag (rTRKB.mmH; SEQ ID NO: 84; Accession number NP_036863.1), and human TrkB extracellular domain expressed with a C-terminal mouse IgG2a Fc tag (hTrkB-mFc; SEQ ID NO: 77; Accession number NP_001018074.1). […] Kinetic association (kₐ) and dissociation (kd) rate constants were determined by fitting the real-time binding sensorgrams to a 1:1 binding model with mass transport limitation using Scrubber 2.0c curve-fitting software. Binding dissociation equilibrium constants (KD) and dissociative half-lives (t½) were calculated from the kinetic rate constants as: […]

[2] = target: T2, rat TrkB extracellular domain expressed with a C-terminal myc-myc-hexahistidine tag (rat, UniProt Q63604 32-429); assay: SPR, mAb captured (anti-mFc), 25C
T2 construct: also called rTrkB.mmH; rTRKB.mmH
Experimental: as §1

[3] = target: T3, human TrkB extracellular domain expressed with a C-terminal myc-myc-hexahistidine tag (human, UniProt Q16620 32-430); assay: SPR, mAb captured (anti-mFc), 25C
T3 construct: also called hTrkB.mmH; hTRKB.mmH
Experimental: as §1

[4] = target: T4, human TrkB extracellular domain expressed with a C-terminal mouse IgG2a Fc tag (human); assay: SPR, mAb captured (anti-mFc), 25C
T4 construct: also called hTrkB-mFc; hTrkB.mFc
Experimental: as §1

[5] = target: T1, mouse TrkB extracellular domain …; assay: SPR, mAb captured (anti-mFc), 37C
Experimental: as §1

[6] = target: T2, rat TrkB extracellular domain expressed …; assay: SPR, mAb captured (anti-mFc), 37C
Experimental: as §1

[7] = target: T3, human TrkB extracellular domain …; assay: SPR, mAb captured (anti-mFc), 37C
Experimental: as §1

[8] = target: T4, human TrkB extracellular domain …; assay: SPR, mAb captured (anti-mFc), 37C
Experimental: as §1

[9] = target: T1, mouse TrkB extracellular domain …; assay: SPR Biacore T200, mAb captured (anti-mFc), 25C
Experimental: (§2) Equilibrium dissociation constants (KD values) for TrkB binding to purified anti-TrkB monoclonal antibodies were determined using a real-time surface plasmon resonance biosensor using a Biacore T200 instrument. All binding studies were performed in 10 mM Hepes pH 7.4, 150 mM NaCl, 3 mM EDTA, and 0.05% v/v Surfactant Tween-20 (HBS-ET running buffer) at 25° C. The Biacore sensor surface was first derivatized by amine coupling with rabbit anti-mouse Fc polyclonal antibody (GE Healthcare #BR-1008-38) to capture anti-TrkB monoclonal antibodies. Binding studies were performed on the following TrkB reagents; human TrkB extracellular domain expressed with a C-terminal myc-myc-hexahistidine tag (hTrkB.mmH; SEQ ID NO: 76; NP_001018074.1), mouse TrkB extracellular domain expressed with a C-terminal myc-myc-hexahistidine tag (mTRKB.mmH; SEQ ID NO: 79; NP_001020245), and rat TrkB extracellular domain expressed with a C-terminal myc-myc-hexahistidine tag (rTRKB.mmH; SEQ ID NO: 84; XP_002721319.1). […] Kinetic association (kₐ) and dissociation (kd) rate constants were determined by fitting the real-time binding sensorgrams to a 1:1 binding model with mass transport limitation using Scrubber 2.0c curve-fitting software. Binding dissociation equilibrium constants (KD) and dissociative half-lives (t½) were calculated from the kinetic rate constants as: […]

[10] = target: T2, rat TrkB extracellular domain expressed …; assay: SPR Biacore T200, mAb captured (anti-mFc), 25C
Experimental: as §2

[11] = target: T3, human TrkB extracellular domain …; assay: SPR Biacore T200, mAb captured (anti-mFc), 25C
Experimental: as §2

T1 sequence (P15209 other isoform, or with tags, fused parts or gaps): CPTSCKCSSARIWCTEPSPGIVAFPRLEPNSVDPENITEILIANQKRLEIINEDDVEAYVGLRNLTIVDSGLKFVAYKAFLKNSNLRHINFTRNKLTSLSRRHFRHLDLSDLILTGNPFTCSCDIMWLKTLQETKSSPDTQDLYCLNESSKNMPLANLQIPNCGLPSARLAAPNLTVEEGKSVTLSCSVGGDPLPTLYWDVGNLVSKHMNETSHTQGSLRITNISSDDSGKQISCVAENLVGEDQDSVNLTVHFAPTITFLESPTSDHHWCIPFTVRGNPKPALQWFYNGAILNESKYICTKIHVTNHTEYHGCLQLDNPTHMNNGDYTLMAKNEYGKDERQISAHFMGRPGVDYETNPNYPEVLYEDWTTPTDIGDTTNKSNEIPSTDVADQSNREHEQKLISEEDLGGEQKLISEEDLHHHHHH
T3 sequence (Q16620 other isoform, or with tags, fused parts or gaps): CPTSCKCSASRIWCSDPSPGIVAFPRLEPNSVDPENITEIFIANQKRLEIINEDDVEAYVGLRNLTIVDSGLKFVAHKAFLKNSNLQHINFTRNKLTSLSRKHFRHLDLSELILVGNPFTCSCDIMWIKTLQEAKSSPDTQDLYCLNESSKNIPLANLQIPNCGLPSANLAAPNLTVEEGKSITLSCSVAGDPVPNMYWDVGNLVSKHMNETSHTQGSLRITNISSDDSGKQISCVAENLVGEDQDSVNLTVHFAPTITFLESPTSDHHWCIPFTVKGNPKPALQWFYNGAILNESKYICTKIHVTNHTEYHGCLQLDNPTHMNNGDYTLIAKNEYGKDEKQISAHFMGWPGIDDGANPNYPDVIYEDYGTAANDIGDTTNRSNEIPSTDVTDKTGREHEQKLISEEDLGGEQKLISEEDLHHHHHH
T4 sequence (chain, as listed by the source limits assumed): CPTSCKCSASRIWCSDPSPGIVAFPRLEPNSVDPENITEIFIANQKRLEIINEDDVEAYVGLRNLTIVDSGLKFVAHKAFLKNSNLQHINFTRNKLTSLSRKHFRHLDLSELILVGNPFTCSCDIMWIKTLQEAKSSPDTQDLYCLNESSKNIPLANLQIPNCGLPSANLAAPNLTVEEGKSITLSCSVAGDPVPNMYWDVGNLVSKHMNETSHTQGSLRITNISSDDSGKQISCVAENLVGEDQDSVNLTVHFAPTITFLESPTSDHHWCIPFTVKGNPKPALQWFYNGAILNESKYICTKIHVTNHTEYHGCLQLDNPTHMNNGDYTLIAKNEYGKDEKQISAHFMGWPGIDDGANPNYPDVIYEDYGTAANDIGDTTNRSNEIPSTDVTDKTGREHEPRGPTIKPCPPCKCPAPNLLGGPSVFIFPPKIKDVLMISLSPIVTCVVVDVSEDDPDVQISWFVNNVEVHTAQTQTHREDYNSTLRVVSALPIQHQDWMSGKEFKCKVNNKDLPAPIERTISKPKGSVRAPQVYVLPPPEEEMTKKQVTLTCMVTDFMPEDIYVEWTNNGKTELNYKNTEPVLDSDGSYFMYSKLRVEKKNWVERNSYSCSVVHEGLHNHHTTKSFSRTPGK
T2 sequence (Q63604 other isoform, or with tags, fused parts or gaps): as the sequence (P15209 other isoform, or with tags, fused parts or gaps) above, with T3M, S9T, A10T, V32I, R63K, S84G, M153T, L185I, S394T counted along it

Kd [1]: 40.8 nM
koff [1]: 0.00168 s⁻¹
kon [1]: 41200 M⁻¹ s⁻¹
t½ [1]: 7 min
Kd [2]: 31 nM
koff [2]: 0.0016 s⁻¹
kon [2]: 51600 M⁻¹ s⁻¹
t½ [2]: 7 min
Kd [3]: 41.3 nM
koff [3]: 0.00192 s⁻¹
kon [3]: 46500 M⁻¹ s⁻¹
t½ [3]: 6 min
Kd [4]: 1.09 nM
koff [4]: 9.55e-05 s⁻¹
kon [4]: 88000 M⁻¹ s⁻¹
t½ [4]: 121 min
Kd [5]: 94.1 nM
koff [5]: 0.00696 s⁻¹
kon [5]: 74000 M⁻¹ s⁻¹
t½ [5]: 1.7 min
Kd [6]: 87.5 nM
koff [6]: 0.00694 s⁻¹
kon [6]: 79300 M⁻¹ s⁻¹
t½ [6]: 1.7 min
Kd [7]: 135 nM
koff [7]: 0.00831 s⁻¹
kon [7]: 61300 M⁻¹ s⁻¹
t½ [7]: 1.4 min
Kd [8]: 1.24 nM
koff [8]: 0.000292 s⁻¹
kon [8]: 235000 M⁻¹ s⁻¹
t½ [8]: 40 min
B1: H1M8037C (antibody, mouse IgG1, kappa, V domains shown)
VH: QVQLVQSGAEVKKPGASVKVSCKASGYTFTNYDIIWVRQAPGQGLEWMGYINPYNDGTKYNEKFKGRVTMTRDTSTSTVYMELSSLRSEDTAVYYCARLLKYRRFRYYAIDYWGQGTTVTVSS
VL: DIQMTQSPSSLSASVGDRVTITCRTSENVYSNLAWYQQKPGKAPKLLIYAASNLQSGVPSRFSGSGSGTDYTFTISSLQPEDIATYYCQHFWGSPFTFGQGTKLEIKR
notes: captured by anti-mFc in SPR; also called Comparator; comparator anti-TrkB monoclonal antibody

90 nM TrkB.mmH Bound (RU) [9]: 32 RU
Kd [9]: 32.4 nM
koff [9]: 0.00372 s⁻¹
kon [9]: 115000 M⁻¹ s⁻¹
t½ [9]: 3.1 min
90 nM rTrkB.mmH Bound (RU) [10]: 33 RU
Kd [10]: 26.9 nM
koff [10]: 0.00398 s⁻¹
kon [10]: 148000 M⁻¹ s⁻¹
t½ [10]: 2.9 min
90nM hTrkB.mmH Bound (RU) [11]: -2 RU
B2: M2aM14179N (antibody, mouse IgG2a, kappa, V domains shown)
VH: EVQLQQSGPELVKPGASVKISCKASGYTLTDYYMNWVKQSHGKSLEWIGDINPNNGGTSYNQKFKGKATLTVDKSSSTAYMELRSLTSEDSAVYYCARGAYYSNYFDYWGQGTTLTVSS
VL: DIVMSQSPSSLAVSAGEKVTMSCKSSQSLLNSRTRKNYLAWYQQKPGQSPKLLIYWASTRESGVPDRFTGSGSGTDFTLTISSVQAEDLAVYYCKQSYILFTFGSGTQLEIKR
notes: Anti-mouse TrkB antibody from hybridoma, mouse IgG2a Fc; also called surrogate anti-mouse TrkB antibody

90 nM TrkB.mmH Bound (RU) [9]: 33 RU
Kd [9]: 8.49 nM
koff [9]: 0.00063 s⁻¹
kon [9]: 74100 M⁻¹ s⁻¹
t½ [9]: 18 min
90 nM rTrkB.mmH Bound (RU) [10]: 33 RU
Kd [10]: 8 nM
koff [10]: 0.000632 s⁻¹
kon [10]: 79000 M⁻¹ s⁻¹
t½ [10]: 18 min
90nM hTrkB.mmH Bound (RU) [11]: 0 RU
binding result [11]: no binding (tested: 90 nM)
B3: M2aM14173N (antibody, mouse IgG2a, kappa, V domains shown)
VH: NVSLVESGGGSVKPGGSLQLSCAASGFTFSSSAMSWIRQTPEMRLEWVATISDRGSYTYYPDSVEGRFTISRDNAKNILYLQMSHLMSEDTAMYYCARGKGEKAYYTAFFAYWGQGSLVTVSA
VL: DIQMTQSPASLSASVGETVTITCRASENIYSYLAWYQQKPGKSPHLLVHNAETLAEGVPSRFSGSGSGPQFSLKINSLQPGDSGTYYCQHHYSSPWTFGGGTKLEIKR
notes: as for B2
